Test results: patent publication US20230287051A1, “INHIBITORS OF COMPLEMENT FACTOR C3 AND THEIR MEDICAL USES” (ZP SPV 3 K/S, priority 2020, published 2023)
Blank lines part the entries; values can stand above or below the molecule they belong to. Numbered stars: 1 amine (or outer) side, 2 acyl side, 3 side chain; on linkers, the order of the positions; unused ones are H or OH. Bridge positions count the residues as written; N and C are the ends. Square brackets hold non-standard residues; d marks the D form. Side chains are listed from the residue outwards. Peptide text beside a SMILES is read from it. * marks the point of attachment. Trp(1-Me) = Cn1cc(C[C@H](N)C(=O)O)c2ccccc21; C18 diacid = O=C(O)CCCCCCCCCCCCCCCCC(=O)*; C16 diacid = O=C(O)CCCCCCCCCCCCCCC(=O)*; γGlu = O=C(O)[C@H](CCC(=O)[*:2])N[*:1]; AEEA = NCCOCCOCC(=O)O; CH2 = C([*:1])[*:2]; Sar = CNCC(=O)O

What was measured:
[1] = system: classical complement pathway; experiment: In vitro haemolysis assay (inhibition of classical complement pathway); type: cell-based; settings: human serum, sensitized sheep RBC, 30 minutes at 37° C., absorbance at 405 nm, n=>2; read-out: IC50, inhibition of hemolysis
Description: The in vitro effect of some of the compounds described herein was assessed by measuring their inhibitory effect of the classical complement pathway in a haemolysis assay.
Briefly, compounds described herein and reference compounds were dissolved in DMSO and diluted in Tris/Casein Assay Buffer (10 mM Tris, 145 mM NaCl, 0.5 mM MgCl2, 0.15 mM CaCl2, and 0.1% W/V casein, adjusted to pH 7.4) as 9-point serial dilutions in a 96-well plate. Sensitized sheep red blood cells (RBC) coated with rabbit anti-sheep erythrocyte antiserum (Complement Technology, Inc., TX, USA) were washed in Tris/asein Assay Buffer. 50 μL from each well of diluted compound was added to a 96-well plate containing 50 μL diluted human serum (Complement Technology, Inc., TX, USA) and incubated for 15 minutes at room temperature. The serum dilution factor was optimized for every serum batch to obtain 70-90% of maximal haemolysis using the protocol. Then 50 μL sensitized sheep RBCs were added to all wells ([…]).
After 30 minutes of incubation at 37° C. with gentle agitation, the reaction was stopped by addition of 50 μL Tris STOP Buffer per well (10 mM EDTA, 10 mM Tris, 145 mM NaCl adjusted to pH 7.4). The RBCs were then removed by centrifugation and the resulting supernatant measured for hemolysis by absorbance at 405 nm.
The response was normalized relative to a positive and negative control (vehicle) to calculate the IC50 (nM) from the concentration response curve using the 4-parameter logistic (4PL) nonlinear model for curve fitting (Table 2). All values are based on n=>2 independent determinations.

[2] = biological target: T1, Human C3 (Homo sapiens, UniProt P01024); experiment: Affinity measurement by surface plasmon resonance with immobilized C3; settings: SPR, immobilized human C3, 25° C., 1:1 Langmuir binding model, n=>2
T1 construct: purchased Complement tech A113c
Description: (§1) Surface plasmon resonance (SPR) was used to characterize peptides with respect to their binding affinity (Kd) for C3.
(§2) For interaction experiments, a multi-cycle experiment approach was used and performed using a BiacoreX100™ instrument (GE Healthcare) at 25° C. Peptides were injected in increasing concentration series (5 different concentrations and buffer reference) for 180 seconds at a flow rate of 30 μL/min in a buffer consisting of 50 mM Tris buffer at pH 7.4, with 150 mM NaCl and 0.05% Tween20. This was followed by a dissociation period for 10 min. The C3 surface was regenerated between runs by two consecutive injections of 3 M MgCl2 each for 45 seconds.
(§3) Sensorgrams were double-referenced (reference surface, blanks) prior to analysis of the kinetic profiles by globally fitting data to a 1:1 Langmuir binding model to obtain association and dissociation rates for calculation of the equilibrium dissociation constant Kd (Table 3). Each peptide was tested at in at least 2 independent experiments.

[3] = biological target: T2, Human C3 (Complement tech cat #A113c) (human, UniProt P01024 23-1663); experiment: cell-based or functional assay
T2 sequence (P01024 23-1663 limits assumed): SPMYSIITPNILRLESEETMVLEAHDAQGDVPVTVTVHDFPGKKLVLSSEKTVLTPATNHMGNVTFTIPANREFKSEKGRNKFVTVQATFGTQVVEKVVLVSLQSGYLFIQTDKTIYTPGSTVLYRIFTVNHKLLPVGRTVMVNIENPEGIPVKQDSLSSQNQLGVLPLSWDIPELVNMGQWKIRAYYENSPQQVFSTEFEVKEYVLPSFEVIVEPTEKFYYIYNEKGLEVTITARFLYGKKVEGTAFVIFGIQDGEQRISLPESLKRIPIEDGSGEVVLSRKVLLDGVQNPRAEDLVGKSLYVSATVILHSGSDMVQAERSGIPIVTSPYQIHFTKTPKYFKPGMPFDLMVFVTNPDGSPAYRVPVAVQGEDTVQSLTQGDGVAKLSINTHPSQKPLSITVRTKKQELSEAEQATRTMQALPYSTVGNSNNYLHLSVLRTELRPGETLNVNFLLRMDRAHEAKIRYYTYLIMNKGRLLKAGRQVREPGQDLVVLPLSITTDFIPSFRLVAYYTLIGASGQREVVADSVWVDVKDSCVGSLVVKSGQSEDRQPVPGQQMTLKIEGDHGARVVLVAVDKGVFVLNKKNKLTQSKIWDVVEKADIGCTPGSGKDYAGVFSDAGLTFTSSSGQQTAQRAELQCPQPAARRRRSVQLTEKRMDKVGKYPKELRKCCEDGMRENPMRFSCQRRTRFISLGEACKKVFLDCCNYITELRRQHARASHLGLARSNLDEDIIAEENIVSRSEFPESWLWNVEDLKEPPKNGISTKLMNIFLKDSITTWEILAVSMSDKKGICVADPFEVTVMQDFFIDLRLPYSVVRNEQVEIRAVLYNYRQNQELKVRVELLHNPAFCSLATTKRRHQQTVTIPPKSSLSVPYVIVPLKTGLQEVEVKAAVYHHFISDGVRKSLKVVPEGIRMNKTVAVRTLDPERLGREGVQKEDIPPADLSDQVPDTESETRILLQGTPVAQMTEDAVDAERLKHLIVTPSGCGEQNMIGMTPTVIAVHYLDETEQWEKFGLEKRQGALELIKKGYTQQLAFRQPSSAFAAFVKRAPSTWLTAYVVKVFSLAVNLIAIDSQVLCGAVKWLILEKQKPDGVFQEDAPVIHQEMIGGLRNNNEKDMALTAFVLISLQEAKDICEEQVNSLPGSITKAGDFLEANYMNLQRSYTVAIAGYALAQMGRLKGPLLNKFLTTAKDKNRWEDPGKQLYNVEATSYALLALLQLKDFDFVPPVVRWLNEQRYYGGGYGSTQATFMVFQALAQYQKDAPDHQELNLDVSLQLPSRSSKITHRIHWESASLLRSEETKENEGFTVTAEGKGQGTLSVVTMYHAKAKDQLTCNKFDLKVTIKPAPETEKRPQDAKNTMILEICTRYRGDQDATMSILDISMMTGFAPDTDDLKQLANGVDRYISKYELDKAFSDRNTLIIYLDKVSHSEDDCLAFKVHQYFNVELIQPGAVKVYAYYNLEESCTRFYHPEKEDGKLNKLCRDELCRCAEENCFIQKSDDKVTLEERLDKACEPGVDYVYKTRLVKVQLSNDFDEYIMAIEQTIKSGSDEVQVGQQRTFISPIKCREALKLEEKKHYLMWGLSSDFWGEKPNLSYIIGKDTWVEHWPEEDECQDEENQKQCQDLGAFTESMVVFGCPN

[4] = biological target: T2, Human C3 (Complement tech cat #A113c); experiment: SPR (Biacore X100, 25 C), human C3 amine-coupled on CM5 chip, peptide as analyte, 1:1 Langmuir fit
Description: as §1
as §2, with “min.” for “min. The C3 surface was regenerated between runs by two consecutive injections of 3 M MgCl2 each for 45 seconds.”
as §3

Kd [2]: 17 nM
Molecule: CC[C@H](C)[C@@H]1NC(=O)[C@@H](NC(=O)[C@H](Cc2ccccc2)NC(=O)[C@H](CCC(=O)O)NC(=O)[C@H](CO)NC(C)=O)CSCSC[C@@H](C(=O)N[C@H](C(=O)N[C@@H](CCC(=O)O)C(=O)NCC(=O)N[C@@H](CCC(=O)O)C(=O)NCCOCCOCC(=O)NCCOCCOCC(=O)N[C@@H](CCCCNC(=O)CC[C@H](NC(=O)CNC(=O)CC[C@H](NC(=O)CCCCCCCCCCCCCCCCC(=O)O)C(=O)O)C(=O)O)C(N)=O)[C@@H](C)O)NC(=O)[C@H](CCCNC(=N)N)NC(=O)[C@H](Cc2c[nH]cn2)NC(=O)[C@H](CCC(=O)O)NC(=O)CN(C)C(=O)[C@H](Cc2c[nH]c3ccccc23)NC(=O)[C@H](CC(=O)O)NC(=O)[C@H](CCC(N)=O)NC(=O)[C@H](Cc2cn(C)c3ccccc23)NC1=O [Compound 9] (Ac-SEFCI[Trp(1-Me)]QDW[Sar]EHRCTEGE[AEEA][AEEA]K([γGlu-Gly-γGlu-C18 diacid])-NH2; linker 4-14 via CH2)
IC50 [1]: < 250 nM

Kd [2]: 19 nM
Molecule: CC[C@H](C)[C@@H]1NC(=O)[C@@H](NC(=O)[C@H](Cc2ccccc2)NC(=O)[C@H](CCC(=O)O)NC(=O)[C@H](CO)NC(C)=O)CSCSC[C@@H](C(=O)N[C@H](C(=O)N[C@@H](CCC(=O)O)C(=O)NCCOCCOCC(=O)NCCOCCOCC(=O)N[C@@H](CCCCNC(=O)CC[C@H](NC(=O)CNC(=O)CC[C@H](NC(=O)CCCCCCCCCCCCCCCCC(=O)O)C(=O)O)C(=O)O)C(N)=O)[C@@H](C)O)NC(=O)[C@H](CCCNC(=N)N)NC(=O)[C@H](Cc2c[nH]cn2)NC(=O)[C@H](CCC(=O)O)NC(=O)CN(C)C(=O)[C@H](Cc2c[nH]c3ccccc23)NC(=O)[C@H](CC(=O)O)NC(=O)[C@H](CCC(N)=O)NC(=O)[C@H](Cc2cn(C)c3ccccc23)NC1=O [Compound 10, Ac-SEF[C(1)]I[1-Me-Trp]QDW[Sar]EHR[C(1)]TE[Peg3][Peg3]-K([17-Carboxy-heptadecanoyl][yGlu]G[yGlu])-NH2] (Ac-SEFCI[Trp(1-Me)]QDW[Sar]EHRCTE[AEEA][AEEA]K([γGlu-Gly-γGlu-C18 diacid])-NH2; linker 4-14 via CH2)
IC50 [1]: < 250 nM

Kd [2]: 19 nM
Molecule: CC[C@H](C)[C@@H]1NC(=O)[C@@H](NC(=O)[C@H](Cc2ccccc2)NC(=O)[C@H](CCC(=O)O)NC(=O)[C@H](CO)NC(=O)CNC(=O)[C@H](CCC(=O)O)NC(=O)CCCCCCCCCCCCCCC(=O)O)CSCSC[C@@H](C(=O)N[C@H](C(=O)N[C@@H](CCC(=O)O)C(=O)NCC(=O)N[C@@H](CCC(=O)O)C(N)=O)[C@@H](C)O)NC(=O)[C@H](CCCNC(=N)N)NC(=O)[C@H](Cc2c[nH]cn2)NC(=O)[C@H](CCC(=O)O)NC(=O)CN(C)C(=O)[C@H](Cc2c[nH]c3ccccc23)NC(=O)[C@H](CC(=O)O)NC(=O)[C@H](CCC(N)=O)NC(=O)[C@H](Cc2cn(C)c3ccccc23)NC1=O [Compound 19] ({C16 diacid}-EGSEFCI[Trp(1-Me)]QDW[Sar]EHRCTEGE-NH2; linker 6-16 via CH2)
IC50 [1]: < 250 nM

Kd [2]: 19 nM
Molecule: CC[C@H](C)[C@@H]1NC(=O)[C@@H](NC(=O)[C@H](Cc2ccccc2)NC(=O)[C@H](CCC(=O)O)NC(=O)[C@H](CO)NC(=O)CNC(=O)[C@H](CCC(=O)O)NC(C)=O)CSCSC[C@@H](C(=O)N[C@H](C(=O)N[C@@H](CCC(=O)O)C(=O)NCC(=O)N[C@@H](CCC(=O)O)C(=O)NCCOCCOCC(=O)N[C@@H](CCC(=O)O)C(=O)N[C@@H](CO)C(=O)N[C@@H](CCCCNC(=O)CC[C@H](NC(=O)CCCCCCCCCCCCCCCCC(=O)O)C(=O)O)C(N)=O)[C@@H](C)O)NC(=O)[C@H](CCCNC(=N)N)NC(=O)[C@H](Cc2c[nH]cn2)NC(=O)[C@H](CCC(=O)O)NC(=O)CN(C)C(=O)[C@H](Cc2c[nH]c3ccccc23)NC(=O)[C@H](CC(=O)O)NC(=O)[C@H](CCC(N)=O)NC(=O)[C@H](Cc2cn(C)c3ccccc23)NC1=O [Compound 20, Ac-EGSEF[C(1)]I[1-Me-Trp]QDW[Sar]EHR[C(1)]TEGE[Peg3]ES-K([17-Carboxy-heptadecanoyl][yGlu])-NH2] (Ac-EGSEFCI[Trp(1-Me)]QDW[Sar]EHRCTEGE[AEEA]ESK([γGlu-C18 diacid])-NH2; linker 6-16 via CH2)
IC50 [1]: < 250 nM

Kd [4]: 13 nM
B1: Compound 24 (peptide)
peptide: Ac-ESEQVFCI[Trp(1-Me)]QDW[Sar]EHRCTEGE[AEEA][AEEA]K([γGlu-Gly-γGlu-C18 diacid])-NH2
modifications: bridge 7-17 via methylene thioacetal (-S-CH2-S-)
notes: Synthetic compstatin analogue; also called Comp No 24
IC50 [nM], in vitro inhibition of hemolysis (classical complement pathway; human serum, sensitized sheep RBC) [3]: < 100 nM

Kd [4]: 16 nM
B2: Compound 15 (peptide)
peptide: Ac-[dY]ICI[Trp(1-Me)]QDW[Sar]EHRCTEGE[AEEA]ESK([γGlu-C18 diacid])-NH2
modifications: bridge 3-13 via methylene thioacetal (-S-CH2-S-)
notes: Synthetic compstatin analogue; also called Comp No 15
IC50 [nM], in vitro inhibition of hemolysis (classical complement pathway; human serum, sensitized sheep RBC) [3]: < 250 nM

Kd [4]: 25 nM
B3: Compound 1 (peptide)
peptide: SEFCIWQDWGEHRCTGAES
modifications: N-terminal acetyl; 1-Me-Trp at 6; Cys4 and Cys14 bridged by methylene thioacetal (-S-CH2-S-); C-terminal amide
notes: Synthetic compstatin analogue; also called Comp No 1
IC50 [nM], in vitro inhibition of hemolysis (classical complement pathway; human serum, sensitized sheep RBC) [3]: < 100 nM

Kd [4]: 54 nM
B4: Compound 2 (peptide)
peptide: Ac-SEFCI[Trp(1-Me)]QDWGEHRC[Sar]EGE[AEEA][AEEA]K([γGlu-Gly-γGlu-C18 diacid])-NH2
modifications: bridge 4-14 via methylene thioacetal (-S-CH2-S-)
notes: Synthetic compstatin analogue; also called Comp No 2
IC50 [nM], in vitro inhibition of hemolysis (classical complement pathway; human serum, sensitized sheep RBC) [3]: < 500 nM

Kd [4]: 9.1 nM
B5: Compound 25 (peptide)
peptide: Ac-SEQAFCI[Trp(1-Me)]QDW[Sar]EHRCTEGE[AEEA][AEEA]K([γGlu-Gly-γGlu-C18 diacid])-NH2
modifications: bridge 6-16 via methylene thioacetal (-S-CH2-S-)
notes: Synthetic compstatin analogue; also called Comp No 25; comp 25
IC50 [nM], in vitro inhibition of hemolysis (classical complement pathway; human serum, sensitized sheep RBC) [3]: < 100 nM

Kd [4]: 11 nM
B6: Compound 26 (peptide)
peptide: Ac-SKQEFCI[Trp(1-Me)]QDW[Sar]EHRCTEGE[AEEA][AEEA]K([γGlu-Gly-γGlu-C18 diacid])-NH2
modifications: bridge 6-16 via methylene thioacetal (-S-CH2-S-)
notes: Synthetic compstatin analogue; also called Comp No 26
IC50 [nM], in vitro inhibition of hemolysis (classical complement pathway; human serum, sensitized sheep RBC) [3]: < 100 nM

Kd [4]: 12 nM
B7: Compound 12 (peptide)
peptide: Ac-EFCI[Trp(1-Me)]QDW[Sar]EHRCTEA[AEEA][AEEA]K([γGlu-Gly-γGlu-C18 diacid])-NH2
modifications: bridge 3-13 via methylene thioacetal (-S-CH2-S-)
notes: Synthetic compstatin analogue; also called Comp No 12
IC50 [nM], in vitro inhibition of hemolysis (classical complement pathway; human serum, sensitized sheep RBC) [3]: < 100 nM

Kd [4]: 21 nM
B8: Compound 7 (peptide)
peptide: Ac-SEFCI[Trp(1-Me)]QDW[Sar]EHRC[Sar]E[AEEA][AEEA]K([γGlu-Gly-γGlu-C18 diacid])-NH2
modifications: bridge 4-14 via methylene thioacetal (-S-CH2-S-)
notes: Synthetic compstatin analogue; also called Comp No 7
IC50 [nM], in vitro inhibition of hemolysis (classical complement pathway; human serum, sensitized sheep RBC) [3]: < 500 nM

Kd [4]: 14 nM
B9: Compound 23 (peptide)
peptide: Ac-ESQVFCI[Trp(1-Me)]QDW[Sar]EHRCTEGE[AEEA][AEEA]K([γGlu-Gly-γGlu-C18 diacid])-NH2
modifications: bridge 6-16 via methylene thioacetal (-S-CH2-S-)
notes: Synthetic compstatin analogue; also called Comp No 23
IC50 [nM], in vitro inhibition of hemolysis (classical complement pathway; human serum, sensitized sheep RBC) [3]: < 100 nM
